In US20210238260:

Target: Factor X (FX), P00742
Sequence (P00742 whole entry, looked up): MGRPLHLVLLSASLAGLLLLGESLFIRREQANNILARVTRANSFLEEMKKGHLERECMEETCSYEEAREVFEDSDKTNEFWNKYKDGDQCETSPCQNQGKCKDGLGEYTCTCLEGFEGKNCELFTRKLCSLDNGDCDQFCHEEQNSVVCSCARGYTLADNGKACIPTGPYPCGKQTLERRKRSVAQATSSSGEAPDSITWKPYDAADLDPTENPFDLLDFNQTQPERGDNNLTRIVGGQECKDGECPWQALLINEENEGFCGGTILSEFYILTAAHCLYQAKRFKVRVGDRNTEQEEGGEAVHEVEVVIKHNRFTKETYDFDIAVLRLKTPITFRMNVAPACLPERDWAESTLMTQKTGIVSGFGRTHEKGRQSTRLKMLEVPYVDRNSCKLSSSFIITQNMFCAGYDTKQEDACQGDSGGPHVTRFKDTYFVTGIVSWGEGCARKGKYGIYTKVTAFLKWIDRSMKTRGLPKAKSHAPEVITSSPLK

| Protein | KM (FX activation by FIXa in the Xase complex with FVIIIa, PC/PS vesicles and Ca2+) | % of WT kcat/KM | kcat/KM |
| --- | --- | --- | --- |
| FIXa D104N/K106S/K247N/N249S/R318Y/R338E/R403E/E410N (protein) chain 1: YNSGKLEEFVQGNLERECMEEKCSFEEAREVFENTERTTEFWKQYVDGDQCESNPCLNGGSCKDDINSYECWCPFGFEGKNCELDVTCNIKNGRCEQFCKNSANNSVVCSCTEGYRLAENQKSCEPAVPFPCGRVSVSQTSKLTR chain 2: VVGGEDAKPGQFPWQVVLNGKVDAFCGGSIVNEKWIVTAAHCVETGVKITVVAGEHNIEETEHTEQNRSVIRIIPHHNYNAAINKYNHDIALLELDEPLVLNSYVTPICIADKEYTNIFLKFGSGYVSGWGRVFHKGYSALVLQYLRVPLVDRATCLESTKFTIYNNMFCAGFHEGGRDSCQGDSGGPHVTEVEGTSFLTGIISWGEECAMKGKYGIYTKVSEYVNWIKNKTKLT | 0.059 µM |  |  |
| FIXa D104N/K106S/K228N/K247N/N249S (protein) chain 1: YNSGKLEEFVQGNLERECMEEKCSFEEAREVFENTERTTEFWKQYVDGDQCESNPCLNGGSCKDDINSYECWCPFGFEGKNCELDVTCNIKNGRCEQFCKNSANNSVVCSCTEGYRLAENQKSCEPAVPFPCGRVSVSQTSKLTR chain 2: VVGGEDAKPGQFPWQVVLNGKVDAFCGGSIVNEKWIVTAAHCVETGVNITVVAGEHNIEETEHTEQNRSVIRIIPHHNYNAAINKYNHDIALLELDEPLVLNSYVTPICIADKEYTNIFLKFGSGYVSGWGRVFHKGRSALVLQYLRVPLVDRATCLRSTKFTIYNNMFCAGFHEGGRDSCQGDSGGPHVTEVEGTSFLTGIISWGEECAMKGKYGIYTKVSRYVNWIKEKTKLT | 0.0771 µM |  |  |
| FIXa K247N/N249S/R318Y/R338E/E410N (protein) chain 1: YNSGKLEEFVQGNLERECMEEKCSFEEAREVFENTERTTEFWKQYVDGDQCESNPCLNGGSCKDDINSYECWCPFGFEGKNCELDVTCNIKNGRCEQFCKNSADNKVVCSCTEGYRLAENQKSCEPAVPFPCGRVSVSQTSKLTR chain 2: VVGGEDAKPGQFPWQVVLNGKVDAFCGGSIVNEKWIVTAAHCVETGVKITVVAGEHNIEETEHTEQNRSVIRIIPHHNYNAAINKYNHDIALLELDEPLVLNSYVTPICIADKEYTNIFLKFGSGYVSGWGRVFHKGYSALVLQYLRVPLVDRATCLESTKFTIYNNMFCAGFHEGGRDSCQGDSGGPHVTEVEGTSFLTGIISWGEECAMKGKYGIYTKVSRYVNWIKNKTKLT | 0.0166 µM |  |  |
| FIXa K228N/K247N/N249S (protein) chain 1: YNSGKLEEFVQGNLERECMEEKCSFEEAREVFENTERTTEFWKQYVDGDQCESNPCLNGGSCKDDINSYECWCPFGFEGKNCELDVTCNIKNGRCEQFCKNSADNKVVCSCTEGYRLAENQKSCEPAVPFPCGRVSVSQTSKLTR chain 2: VVGGEDAKPGQFPWQVVLNGKVDAFCGGSIVNEKWIVTAAHCVETGVNITVVAGEHNIEETEHTEQNRSVIRIIPHHNYNAAINKYNHDIALLELDEPLVLNSYVTPICIADKEYTNIFLKFGSGYVSGWGRVFHKGRSALVLQYLRVPLVDRATCLRSTKFTIYNNMFCAGFHEGGRDSCQGDSGGPHVTEVEGTSFLTGIISWGEECAMKGKYGIYTKVSRYVNWIKEKTKLT | 0.0945 µM |  |  |
| FIXa R318Y/R338E/R403E/E410S (protein) chain 1: YNSGKLEEFVQGNLERECMEEKCSFEEAREVFENTERTTEFWKQYVDGDQCESNPCLNGGSCKDDINSYECWCPFGFEGKNCELDVTCNIKNGRCEQFCKNSADNKVVCSCTEGYRLAENQKSCEPAVPFPCGRVSVSQTSKLTR chain 2: VVGGEDAKPGQFPWQVVLNGKVDAFCGGSIVNEKWIVTAAHCVETGVKITVVAGEHNIEETEHTEQKRNVIRIIPHHNYNAAINKYNHDIALLELDEPLVLNSYVTPICIADKEYTNIFLKFGSGYVSGWGRVFHKGYSALVLQYLRVPLVDRATCLESTKFTIYNNMFCAGFHEGGRDSCQGDSGGPHVTEVEGTSFLTGIISWGEECAMKGKYGIYTKVSEYVNWIKSKTKLT | 0.0364 µM |  |  |
| FIXa R318Y/R338E/E410S (protein) chain 1: YNSGKLEEFVQGNLERECMEEKCSFEEAREVFENTERTTEFWKQYVDGDQCESNPCLNGGSCKDDINSYECWCPFGFEGKNCELDVTCNIKNGRCEQFCKNSADNKVVCSCTEGYRLAENQKSCEPAVPFPCGRVSVSQTSKLTR chain 2: VVGGEDAKPGQFPWQVVLNGKVDAFCGGSIVNEKWIVTAAHCVETGVKITVVAGEHNIEETEHTEQKRNVIRIIPHHNYNAAINKYNHDIALLELDEPLVLNSYVTPICIADKEYTNIFLKFGSGYVSGWGRVFHKGYSALVLQYLRVPLVDRATCLESTKFTIYNNMFCAGFHEGGRDSCQGDSGGPHVTEVEGTSFLTGIISWGEECAMKGKYGIYTKVSRYVNWIKSKTKLT | 0.0164 µM |  |  |
| FIXa variant R338E/R403E/E410N (protein) chain 1: YNSGKLEEFVQGNLERECMEEKCSFEEAREVFENTERTTEFWKQYVDGDQCESNPCLNGGSCKDDINSYECWCPFGFEGKNCELDVTCNIKNGRCEQFCKNSADNKVVCSCTEGYRLAENQKSCEPAVPFPCGRVSVSQTSKLTR chain 2: VVGGEDAKPGQFPWQVVLNGKVDAFCGGSIVNEKWIVTAAHCVETGVKITVVAGEHNIEETEHTEQKRNVIRIIPHHNYNAAINKYNHDIALLELDEPLVLNSYVTPICIADKEYTNIFLKFGSGYVSGWGRVFHKGRSALVLQYLRVPLVDRATCLESTKFTIYNNMFCAGFHEGGRDSCQGDSGGPHVTEVEGTSFLTGIISWGEECAMKGKYGIYTKVSEYVNWIKNKTKLT |  | 411% | 1.9e+08 M⁻¹ s⁻¹ |
| FIXa variant R318Y/R338E/R403E (protein) chain 1: YNSGKLEEFVQGNLERECMEEKCSFEEAREVFENTERTTEFWKQYVDGDQCESNPCLNGGSCKDDINSYECWCPFGFEGKNCELDVTCNIKNGRCEQFCKNSADNKVVCSCTEGYRLAENQKSCEPAVPFPCGRVSVSQTSKLTR chain 2: VVGGEDAKPGQFPWQVVLNGKVDAFCGGSIVNEKWIVTAAHCVETGVKITVVAGEHNIEETEHTEQKRNVIRIIPHHNYNAAINKYNHDIALLELDEPLVLNSYVTPICIADKEYTNIFLKFGSGYVSGWGRVFHKGYSALVLQYLRVPLVDRATCLESTKFTIYNNMFCAGFHEGGRDSCQGDSGGPHVTEVEGTSFLTGIISWGEECAMKGKYGIYTKVSEYVNWIKEKTKLT |  | 134% | 6.2e+07 M⁻¹ s⁻¹ |
| FIXa Y155F/K247N/N249S/R318Y/R338E/E410N (protein) chain 1: YNSGKLEEFVQGNLERECMEEKCSFEEAREVFENTERTTEFWKQYVDGDQCESNPCLNGGSCKDDINSYECWCPFGFEGKNCELDVTCNIKNGRCEQFCKNSADNKVVCSCTEGYRLAENQKSCEPAVPFPCGRVSVSQTSKLTR chain 2: VVGGEDAKPGQFPWQVVLNGKVDAFCGGSIVNEKWIVTAAHCVETGVKITVVAGEHNIEETEHTEQNRSVIRIIPHHNYNAAINKYNHDIALLELDEPLVLNSYVTPICIADKEYTNIFLKFGSGYVSGWGRVFHKGYSALVLQYLRVPLVDRATCLESTKFTIYNNMFCAGFHEGGRDSCQGDSGGPHVTEVEGTSFLTGIISWGEECAMKGKYGIYTKVSRYVNWIKNKTKLT | 0.0147 µM |  |  |
| FIXa D104N/K106S/Y155F/K247N/N249S/R318Y/R338E/R403E/E410N (protein) chain 1: YNSGKLEEFVQGNLERECMEEKCSFEEAREVFENTERTTEFWKQYVDGDQCESNPCLNGGSCKDDINSYECWCPFGFEGKNCELDVTCNIKNGRCEQFCKNSANNSVVCSCTEGYRLAENQKSCEPAVPFPCGRVSVSQTSKLTR chain 2: VVGGEDAKPGQFPWQVVLNGKVDAFCGGSIVNEKWIVTAAHCVETGVKITVVAGEHNIEETEHTEQNRSVIRIIPHHNYNAAINKYNHDIALLELDEPLVLNSYVTPICIADKEYTNIFLKFGSGYVSGWGRVFHKGYSALVLQYLRVPLVDRATCLESTKFTIYNNMFCAGFHEGGRDSCQGDSGGPHVTEVEGTSFLTGIISWGEECAMKGKYGIYTKVSEYVNWIKNKTKLT | 0.0518 µM |  |  |
| FIXa variant K293E/R338E/R403E (protein) chain 1: YNSGKLEEFVQGNLERECMEEKCSFEEAREVFENTERTTEFWKQYVDGDQCESNPCLNGGSCKDDINSYECWCPFGFEGKNCELDVTCNIKNGRCEQFCKNSADNKVVCSCTEGYRLAENQKSCEPAVPFPCGRVSVSQTSKLTR chain 2: VVGGEDAKPGQFPWQVVLNGKVDAFCGGSIVNEKWIVTAAHCVETGVKITVVAGEHNIEETEHTEQKRNVIRIIPHHNYNAAINKYNHDIALLELDEPLVLNSYVTPICIADEEYTNIFLKFGSGYVSGWGRVFHKGRSALVLQYLRVPLVDRATCLESTKFTIYNNMFCAGFHEGGRDSCQGDSGGPHVTEVEGTSFLTGIISWGEECAMKGKYGIYTKVSEYVNWIKEKTKLT |  | 36% | 1.7e+07 M⁻¹ s⁻¹ |
| FIXa variant Y155F/R338E/R403E/E410N (protein) chain 1: YNSGKLEEFVQGNLERECMEEKCSFEEAREVFENTERTTEFWKQYVDGDQCESNPCLNGGSCKDDINSYECWCPFGFEGKNCELDVTCNIKNGRCEQFCKNSADNKVVCSCTEGYRLAENQKSCEPAVPFPCGRVSVSQTSKLTR chain 2: VVGGEDAKPGQFPWQVVLNGKVDAFCGGSIVNEKWIVTAAHCVETGVKITVVAGEHNIEETEHTEQKRNVIRIIPHHNYNAAINKYNHDIALLELDEPLVLNSYVTPICIADKEYTNIFLKFGSGYVSGWGRVFHKGRSALVLQYLRVPLVDRATCLESTKFTIYNNMFCAGFHEGGRDSCQGDSGGPHVTEVEGTSFLTGIISWGEECAMKGKYGIYTKVSEYVNWIKNKTKLT |  | 401% | 1.8e+08 M⁻¹ s⁻¹ |
| FIXa variant K293A/R338A/R403A (protein) chain 1: YNSGKLEEFVQGNLERECMEEKCSFEEAREVFENTERTTEFWKQYVDGDQCESNPCLNGGSCKDDINSYECWCPFGFEGKNCELDVTCNIKNGRCEQFCKNSADNKVVCSCTEGYRLAENQKSCEPAVPFPCGRVSVSQTSKLTR chain 2: VVGGEDAKPGQFPWQVVLNGKVDAFCGGSIVNEKWIVTAAHCVETGVKITVVAGEHNIEETEHTEQKRNVIRIIPHHNYNAAINKYNHDIALLELDEPLVLNSYVTPICIADAEYTNIFLKFGSGYVSGWGRVFHKGRSALVLQYLRVPLVDRATCLASTKFTIYNNMFCAGFHEGGRDSCQGDSGGPHVTEVEGTSFLTGIISWGEECAMKGKYGIYTKVSAYVNWIKEKTKLT |  | 53% | 2.5e+07 M⁻¹ s⁻¹ |
| FIXa D104N/K106S/Y155F/K228N/K247N/N249S (protein) chain 1: YNSGKLEEFVQGNLERECMEEKCSFEEAREVFENTERTTEFWKQYVDGDQCESNPCLNGGSCKDDINSYECWCPFGFEGKNCELDVTCNIKNGRCEQFCKNSANNSVVCSCTEGYRLAENQKSCEPAVPFPCGRVSVSQTSKLTR chain 2: VVGGEDAKPGQFPWQVVLNGKVDAFCGGSIVNEKWIVTAAHCVETGVNITVVAGEHNIEETEHTEQNRSVIRIIPHHNYNAAINKYNHDIALLELDEPLVLNSYVTPICIADKEYTNIFLKFGSGYVSGWGRVFHKGRSALVLQYLRVPLVDRATCLRSTKFTIYNNMFCAGFHEGGRDSCQGDSGGPHVTEVEGTSFLTGIISWGEECAMKGKYGIYTKVSRYVNWIKEKTKLT | 0.0753 µM |  |  |
